Assay results as given in publication PMC7857489.

How the values were obtained:
MinD (E. coli) [1] = target: MinD (E. coli) (UniProt P0AEZ3)
FL-MinD (E. coli) = FL-MinD (E. coli) (UniProt P0AEZ3)
MinD (E. coli) [2] = target: MinD (E. coli) (UniProt P0AEZ3); remark: listed apart in the source

ClpXP, sequence (P0A6H1 whole entry): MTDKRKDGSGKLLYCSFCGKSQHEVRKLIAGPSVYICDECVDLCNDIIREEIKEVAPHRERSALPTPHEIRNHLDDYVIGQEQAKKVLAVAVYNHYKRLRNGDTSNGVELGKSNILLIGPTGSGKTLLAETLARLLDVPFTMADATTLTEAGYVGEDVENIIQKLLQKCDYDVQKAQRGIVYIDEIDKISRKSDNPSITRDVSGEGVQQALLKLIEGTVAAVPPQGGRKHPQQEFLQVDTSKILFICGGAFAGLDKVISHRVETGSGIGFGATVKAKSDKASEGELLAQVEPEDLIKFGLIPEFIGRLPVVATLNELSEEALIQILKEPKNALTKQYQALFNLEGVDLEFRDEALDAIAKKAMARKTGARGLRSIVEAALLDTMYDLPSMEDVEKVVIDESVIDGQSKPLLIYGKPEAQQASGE
ClpXP, sequence (P0A6G7 15-207): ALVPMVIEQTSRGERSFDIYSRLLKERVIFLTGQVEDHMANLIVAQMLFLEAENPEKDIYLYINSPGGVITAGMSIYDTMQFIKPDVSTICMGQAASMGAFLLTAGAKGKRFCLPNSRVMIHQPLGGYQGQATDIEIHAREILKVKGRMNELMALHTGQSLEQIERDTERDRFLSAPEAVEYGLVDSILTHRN
MinD (E. coli), sequence (P0AEZ3 whole entry): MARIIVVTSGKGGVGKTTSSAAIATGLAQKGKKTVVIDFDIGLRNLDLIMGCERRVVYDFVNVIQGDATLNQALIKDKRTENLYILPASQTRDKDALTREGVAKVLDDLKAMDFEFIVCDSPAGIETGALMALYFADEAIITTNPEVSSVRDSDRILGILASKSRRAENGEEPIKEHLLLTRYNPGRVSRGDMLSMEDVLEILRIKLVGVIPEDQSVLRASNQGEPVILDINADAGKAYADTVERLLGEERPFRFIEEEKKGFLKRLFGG
FL-MinD (E. coli), sequence (P0AEZ3 whole entry): as above

loss of full-length MinD (SDS-PAGE, Coomassie) after 3 h with MinD (6 μM), ClpX (1.0 μM), ClpP (1.2 μM) and ATP; no change when ATP or ClpP was omitted (MinD (E. coli) [1]): 45.9%
rate of degradation of fluorescent MinD (fluorescent peptides released), MinD 0-16 μM, ClpXP 0.8 μM, ATP 8 mM; rate at the plateau (FL-MinD (E. coli)): 0.08 min⁻¹
degradation of MinD (6 μM) by ClpX (0.75 μM), ClpP (0.9 μM) with ATP, SDS-PAGE and densitometry over time (MinD (E. coli) [2]): 50%
Substance: ClpXP (from UniProt P0A6H1 1-424; P0A6G7 15-207) (complex)
